Reference: patent WO2009082624A2 (dated 2009)

Experiments:
[1] = target: T1, human IL-23 (p19/p40 heterodimer), recombinant (human, UniProt Q9NPF7 20-189; P29460 23-328); assay: cell-based or functional assay
T1 sequence 1: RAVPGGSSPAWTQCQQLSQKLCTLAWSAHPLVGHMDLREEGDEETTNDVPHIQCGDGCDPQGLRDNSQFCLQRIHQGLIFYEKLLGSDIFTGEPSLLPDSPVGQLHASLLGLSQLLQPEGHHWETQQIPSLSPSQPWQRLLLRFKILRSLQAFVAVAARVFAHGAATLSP
T1 sequence 2: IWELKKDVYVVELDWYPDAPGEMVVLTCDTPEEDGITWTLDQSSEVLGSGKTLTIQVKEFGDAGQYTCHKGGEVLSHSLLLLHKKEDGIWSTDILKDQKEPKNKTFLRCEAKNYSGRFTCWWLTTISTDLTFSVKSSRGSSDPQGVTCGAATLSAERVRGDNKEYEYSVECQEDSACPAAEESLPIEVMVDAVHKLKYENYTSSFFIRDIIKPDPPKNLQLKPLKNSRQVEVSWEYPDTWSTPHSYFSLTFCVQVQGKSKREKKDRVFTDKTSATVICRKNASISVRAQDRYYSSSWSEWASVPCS

[2] = target: T1, human IL-23 (p19/p40 heterodimer), …; assay: SPR off-rate analysis (Biacore T-100), IL-23 immobilised, 1:1 model
[3] = target: T1, human IL-23 (p19/p40 heterodimer), …; assay: SPR (Biacore T-100), IL-23 immobilised on CM5, bivalent interaction model

IC50, IL-23-mediated IL-17A/A production in murine splenocytes [1]: 26 nM | koff [2]: ~0.0004 s⁻¹ | Kd [3]: 0.8 nM
B1: human IL-23R-Fc soluble receptor (ZymoGenetics) (Fc fusion)
chain: GITNINCSGHIWVEPATIFKMGMNISIYCQAAIKNCQPRKLHFYKNGIKERFQITRINKTTARLWYKNFLEPHASMYCTAECPKHFQETLICGKDISSGYPPDIPDEVTCVIYEYSGNMTCTWNAGKLTYIDTKYVVHVKSLETEEEQQYLTSSYINISTDSLQGGKKYLVWVQAANALGMEESKQLQIHLDDIVIPSAAVISRAETINATVPKTIIYWDSQTTIEKVSCEMRYKATTNQTWNVKEFDTNFTYVQQSEFYLEPNIKYVFQVRCQETGKRYWQPWSSPFFHKTPETVPQVTSKAFQHDTWNSGLTVASISTGHLTSDNRGDIG
